Measured values reported in the DeepSol protein solubility set.

Assay: soluble on expression in E. coli; label from the status in PepcDB or PDB records

Question: For “MAHHHHHHMKLEEVKDIQKIERIGAHSHIRGLGLNDCLDARYCSEGMIGQMSARKAAGIVLRMIKEGRISGRAILLAGQPGTGKTAIAMGIAKALGEDTPFTHISGSEVYSLEMSKTEALTQAFRRSIGVRVKEESEVIEGEVVEIEIEKFNERDINNKNKKLGKMILKTTEMETLYDLGSKMIEALQKENITAGDVICIDKGTGKITKIGKSFARSKDYDAMDPNTLFVQCPEGELQKRKEVVHTVTLHDIDAINSRTQGFLALFSGDTGEIKNEIREHIDMKINEWQEDEKAEIVPGVLFIDEVHMLDIECFSYLNRALESEQSPIVIMATNRGITHIRGTDYKAPHGIPLDLLDRTLIIPTYPYKHQDILKILEQRAEEEDVDIDEYAKELLCKIASESSLRYALHLITLANLVSKKRKATEVTVQDVRRVYNLFIDVKRSTQYLIEYQNEFMFSELPKEELSVKEEDSSEEKRELHEKNSENSSTSN”, which “soluble on expression in E. coli” value is on record?
Answer: soluble

Question: For “MAHHHHHHMKLLSSVGRLSVVAGGLSLIPYTFIYDVDGGERCVMFNRFGGVSENTYGEGSHFYIPWFQTPYIYDIKMKPKVINTTTGTRDLQIVTLSLRLLFRPHTKQLPYLHSTLGPDYDERVLPSIGNEVLKAVVAKYNAESLLTQRDKISKEIRESITARAKHFNILLDDVAITHLSYGKEFAKAIEDKQVAQQESERVKFIVAKTEQEKIAAVIKAQGEAEAAKLISSAVKEYGNSLLEIRKLEAAKEIAENLSKSKNVTYFPASFNILLNPKNL”, which “soluble on expression in E. coli” value is on record?
Answer: not soluble

Question: With “MAHHHHHHMLEFLVTTQPSRRIVCRNEATYIYFWPYLFSREVPGALQLCRWAARRGAAVHGAVRLQPSETPNAAHRCYLTVTRPVAAGRTLISLPAALSLSVSSPESRKGTFIGRYSALESFAQLLARELHNPRSPHRAYLEFLHDLHNSGTDEVSDALLAGLRYERAAVLVDQLDAMYAGNSLQARGAANAPFLDKEQLTSASQRVEWVRLHQLQRRLEQGVPHFAAKSTAWALSMALSRAMEDDAEGLSLYPLIDFCAHSFEPNAYICVGEDERIAATRPVRWADSSGEPLLHVVTRRLLHAGEKVTLRWHWRPVKTTEDAEFWQMRFGYVPQSE” as the sequence, how does the “soluble on expression in E. coli” value read?
Answer: not soluble

Question: With “MAHHHHHHMLHPSNALLTALLFVTTRMTNVESVKKKPLPYVKNYNLCDRSVRGIPSRHTKGTIRASTNPITTAPNEDKSDVYTPPISSGN” as the sequence, how does the “soluble on expression in E. coli” value read?
Answer: soluble

Question: With “MAHHHHHHMLKECDFFSDSYGCIITKSIGYQAPFPLVRLSNGRSTKIPDGACVQGACFVSFGADHTGSRGRLLTMDVSARASSVSFLQLLSSSCPPVTLEPEVEYVSKIETTETASAVVTRGGGNRWSTSVYVQGEDVPDTAYSRRVHFHRASVASLFGFSLWLMEVAKDDYGAQAVHRYSLSTALTGGVSESTLVSANLGRPLDIIALSEDTALVLGTNGVAMADRRQRASDILFFSNLLNGGATGDRQLLTFGEDYTLRAYDLRDVSAPLFQATSATYLRIKSEIDTRASLLVTSDITGVFDVLHVTTVASLQHSGDTVLDAAVLPSRHNGVRVCTSTGSGMIYDWTVT” as the sequence, how does the “soluble on expression in E. coli” value read?
Answer: not soluble

Question: Which “soluble on expression in E. coli” value does the source give for “MAHHHHHHMLKFFTEKANHQALKAVLCAVFVQKPLEVTLGSTYSTPYLQLPKSRALLYSCNEAARLIWSTHAAPLPADNSLEGEAEWLEWESTVLTPALTPLYTHRRITGEAEAALKKLDSTIEEHQGTVAVKGAPSSTSFLVDSVLFASLLPALCEGGLLPAAQAARVPHLVKWFQAFQAEHAELIASAFDVLSVQECGDFLRVP” here?
Answer: soluble

Question: With “MAHHHHHHMLRGTRGFLAVSPGVGIAPETTPVKYTPMMLNIQNMMWWNGKRNLYRATYREKTWYEISRTGAFTKGRRPVMRQKYSREALQAALAMVPPGFEVADVPRPPQRILAQSEGIVGRWYSNYWTLHSMRYQCLLAGVEWPLGERQRPRTNYDEPFFFADFEESKAIQDYRSRWINVNRSLVGMTKRMKEAEEEARYMQFRKLQDTFWSNRKVLVNRVKSMYNQGARTSAKDMPIKTINIKAFLSE” as the sequence, how does the “soluble on expression in E. coli” value read?
Answer: not soluble

Question: Which “soluble on expression in E. coli” value does the source give for “MAHHHHHHMLSKGNVKNLATDEINEMIDNSLKSGDTDEAPYFLQQNNIYWETGHRTYIPFFHFMIHKYTTKIIDDQIRKFTESVKSVHHTPYVFHKDGYFRSYYGDPDINMVFNLKKNTNFIFNSTGTHNSYSLLCNNNTYDKSTHIFDQVLMSAFKLDLKSVLENNV” here?
Answer: not soluble

Question: With “MAHHHHHHMLSSISPKRYSFDKQGNIKEIDFLSCKSVILPEQHLNAKDNFICTTSILPNFYETPPDKASKLKMTQENNIDKANMGTNVYVQRTSSLSNMNVLQYADEVHNNLQDSNVHEINEPLIFADVNQYCGDANTQGIDPGVVAVSNALFAYNSAFQSIPIKSSPNVFKRRSKGEANSEWSNAFVTRVDPYECTDPEEEFKPYEVTKYYDEGKVKTVFNFDQENYNQDM” as the sequence, how does the “soluble on expression in E. coli” value read?
Answer: soluble

Question: For “MAHHHHHHMMRIKQKAFVGKKICIAWEVLHDGKGWKAQGKALQILRFYAFSSEVYLMCRIRDADDKKQICNLVKAVDGIERHRVLFCTTEKGYEAFTRQIDPSLLITNNAAQVAFLKRVIQTLVLVGGDGVVASNVACVPSVEAIAVDLE”, which “soluble on expression in E. coli” value is on record?
Answer: not soluble

Question: For “MAHHHHHHMMSVANAAYLPLIGSCLTAGEQTALQCSLPLLSQRYRGTPMQLWGKVTGIKANYWVAQAFPNGEFAPAVSFYSIDGGSTWTMLSELTEEQAALCEALRGPYQGVPSYEYMMRQDLPAETDEAAVTMPTPDDILKKAEDDIAAARAASDANSDADESEGDDEEQDDEEEEDEEDAGAVLAPRKRMAKFRILSVTEAMRLAHFVQLHDADCRLTVRGMYVLQDGAAVGARNSTFGGQPLHNAKKPSCYVKMARAGTEERNRILYGLTYNPHTDYLMPITDDAPAGVWSVKYNATANVVSVRNLFYEGSLFWYRPGTLECGQVYCGPGERNFDLCFML”, which “soluble on expression in E. coli” value is on record?
Answer: soluble

Question: For “MAHHHHHHMNEVVPHVAELMTDQYANFLIQKLFDMMPQDVRYKVARVAAPKIISIALTPHGTFSVQKMVETIASREEMDILREALSKDVVRLVKDAHGNHVIQKVLQRFSHADKEFIYAAVGSDCISIAKNKQGCCVLQRCLEYASCSQRATLVNQILRCCLQIAEDPFGNYVLQYVLESNDSKTTDTIAIAFLPHLVQLCMNKFSSNVIEKVLRGASQPVQEMYVETMCSPDVVSRLIQDDFGNYVLQTALTICSSAQAESLVSAVRPLMPIIRNAPYAKKLEGKIDGIVHKTAGNDRNSFAEYEKSRQGEMNEQNCDILLPHHARESSVAPHQQLSS”, which “soluble on expression in E. coli” value is on record?
Answer: not soluble

Question: Which “soluble on expression in E. coli” value does the source give for “MAHHHHHHMNIFDHQIKNVDKGNVVAILGAQWGDEGKGKIIDMLSEYSDITCRFNGGANAGHTISVNDKKYALHLLPCGVLYDNNISVLGNGMVIHVKSLMEEIESVGGKLLDRLYLSNKAHILFDIHQIIDSIQETKKLKEGKQIGTTKRGIGPCYSTKASRIGIRLGTLKNFENFKNMYSKLIDHLMDLYNITEYDKEKELNLFYNYHLKLRDRIVDVISFMNTNLENNKKVLIEGANAAMLDIDFGTYPYVTSSCTTVGGVFSGLGIHHKKLNLVVGVVKSYLTRVGCGPFLTELNNDVGQYLREKGHEYGTTTKRPRRCGWLDIPMLLYVKCINSIDMINLTKLDVLSGLEEILLCVNFKNKKTGELLEKGCYPVEEEISEEYEPVYEKFSGWKEDISTCNEFDELPENAKKYILAIEKYLKTPIVWIGVGPNRKNMIVKKNFNLN” here?
Answer: soluble

Question: Which “soluble on expression in E. coli” value does the source give for “MAHHHHHHMNINKILFSKVGEVVKNGNGGMNMQQGASQLLSGKKLIYISKPTHGGFIYWKCRELIHTIKKKTKRCARYLDINHDFSRAALVGVPKTSYDPKNNIFYIQMDNEEWAGNFYKNGPSGVLMWGVMFFAKVCKMGKNALHTIRAAPFGRFAE” here?
Answer: not soluble

Question: Which “soluble on expression in E. coli” value does the source give for “MAHHHHHHMNNSLLGSLFAKRTKEPRDLDAAEMPQLRTGRSRASSESSTTSARSQRDGKKKKQQRRHPGKRRDAQDSDSGDEGVRQHSTPLTSPAPHPRASSVGSEFSDIEENPRPRNQRRSSGKVLRSSGTVAGAEKAKADERPPMAHSTPEVLPGADNLATNPLGEAGAGGEGAAGGQRHLPPMSQSAPMTSGRGSAAETVAVLRKEGSIEASQQQASTLTAGQLCGVAANSTVSFSGDDAAVLGASLNNTCSAATTISHHPTQPLAPAPGSSSGSPEDHKGSPPRACSSAEEGKKCDNRDSNTRRAVSGKDGEEMTHVDTEKQQPHDRSGDTPDRDVGASGKAWEGQRDATSAVEKDTHPLLDTASLRHTLDSFGSRPSSKLRRRSLGIGGSSKCVPAMLDRSRDGDGTSMTPSDGDEILKGLSFFNAASGEFVLTNHDIHSLEAFLFGTRALVVHINDLQKALLEMQHATDLARLL” here?
Answer: not soluble

Question: With “MAHHHHHHMNSKASPAALPMRQGRGFQVIVHGVLEGAECVEVGSVFARTQLFFGPDWAFLESNSGYGEDAAADDDDLVEPTYSNNAEVVTQLCDCAKGPVPYFSFTAPFEFALTSTNPFGWPQLVITLHTVEGAGGSSGKGADGNDTQLLGSGESIIGYGRCFIPMKSGYHTKKVPMMQLESTTSKQQLISFLTREKPVLRDLSFLCTGDDQVMLHARPLDGYVKLNFSVMINGMESSGFEV” as the sequence, how does the “soluble on expression in E. coli” value read?
Answer: soluble

Question: With “MAHHHHHHMPARGCAPVDEQIAGTDTEGRRYRSVEEMWGRELQGNLYDAKTGWYGKSLQYWGSVPATVSGVLGGMDHVHDIDIRDSRAFICCLPERGTTRALDCGAGIGRITKSLLCHLYDVTDLLEPVASMLEKAKEELEGFPVGDFFQSSMETAKLQPKTYDLIVIQWAAIYLTDEDFVAFLVRCKEALTPKGYIFFKENCASDDEFIVDKEDSSLTRSDKHYKRIFAAAGIEVVKEAMQGDWPDDLLKVKMYALR” as the sequence, how does the “soluble on expression in E. coli” value read?
Answer: soluble

Question: With “MAHHHHHHMPFNREILAAISFESGPLSSAEIAARRTPTEEPPKNLEVKSCDKRDEPRQNEATINLIRCMKWALGQSITSISHPAKQRPLNPKRDFSIKTKINLDVGVEKPKPGFCCSTAAATGVREQRNHHAPFYDAHGDSEEASHLDESDVESHDEVPNVPLAFVDYSPMCYRHIREFFNIDHRAYRDVLLRSRWHSTPTPGKSAAQLFFCGRDWVIKTMTHEESKFLRRILHRYYFFVLDHPYTLLPHFVGHHRLEINGEKMYIIIMQNVFVTGNTIHEKYDLKGSTVGRFATEAEKKKQTCTQKDLDINRPLHVGATRRNLLIEQMKMDCGFLNQCNIMDYSFLVGIHVLPMYEAHRPAPSTGSREYLGGAAALATSALEPSYLLGMGETMQPMALNGHPTAAADSAPTDGRCFKADQGGMMSADHPGGRREIYYIGIIDILQEYNSRKSMETLVFGMLKDRQKISAVPPKEYAARFVSFVSSIIV” as the sequence, how does the “soluble on expression in E. coli” value read?
Answer: not soluble

Question: For “MAHHHHHHMPLIEAHLPALRPYIRYPVVAATGSFDVGRLQQYATVCPATYVIETITEALAELTRRMKWSFDLCGNFRDAADFAARGISFVALERATGNIAAGASSFCICDGGVEVGVETAESHQRRGLALACSARLILERLKHGLYPNWDAHVPHSAHLAEKLGYTRGTPYKAYVDELQT”, which “soluble on expression in E. coli” value is on record?
Answer: not soluble

Question: For “MAHHHHHHMPPKGQRSLNIAQPLSSSRAQSANAILRSAASAMATSGPAASKSSPRTSCFPRAFMSTGNARNEMEAYYEQLLSQDRVDGVDAFGKNGIHLLCKGLGIKPESFEMYTLIWKMGVTRGCCIPRADWLKTIYTYKIEQPMDLKLVLVEWVKESRGDSFTEFYNDLYDYIRGEEARLMPYGTAVEAWAVLFQNEPRIIPWIKWYSDIYRREVTRDVWRQIGIFLSAVPNIEAYNVEDRWSCAIDSYVEWCKVSG”, which “soluble on expression in E. coli” value is on record?
Answer: not soluble

Question: Which “soluble on expression in E. coli” value does the source give for “MAHHHHHHMPRIEISKDVKLTIMSYNIQMLSIPFSVHLNSWTRRNAIIDYICSLDDIYDIDILVLNEVFTKKCYKLLTSGKIKEKFPYHTNVIGRNYKRHDNYNDSSSSTGQKDGLSFHSSDTNINIESSRGISNYVSEQMEYIRKNKENHKNKLSKISEDISENSNSSYNSNFDTITGKRKFFHFVNGGVIVLSKHKILHKHALIYSSGKFPDVFCSKGAIYLKCDVMNKKVNVVATHLQAGDNKEQQKCRWKQIDELSKWVYEGIPSTFIKKFESLFFVGDFNIRYNADRLFLDKVLSDNYLNSYVTKKSLDTTYDSFLNDYCRYIERDYNYKHKYTLDYILVANNSNVEIIVPQTSIQNYYKSLYFIKFFLGIIPYKTTYIHHPSDHFPIYATFLILS” here?
Answer: soluble
